Assay results reported in patent publication US20200317768A1 (published 2020).
Numbering of substitutions follows the chain as printed.

T1: human FcγRIIb extracellular domain with C-terminal His-tag (human, UniProt P31994 43-217)
T1 construct: also called human FcgRIIb
T1 sequence: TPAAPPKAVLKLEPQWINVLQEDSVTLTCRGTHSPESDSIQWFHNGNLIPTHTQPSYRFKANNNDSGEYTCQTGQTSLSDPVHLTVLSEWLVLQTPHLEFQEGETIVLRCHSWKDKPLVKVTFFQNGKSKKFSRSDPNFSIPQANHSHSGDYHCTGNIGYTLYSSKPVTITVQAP

T2: cynomolgus monkey FcγRIIb extracellular domain with C-terminal His-tag (cynomolgus monkey)
T2 construct: also called cyno FcgRIIb; cynoFcγRIIb
T2 chain: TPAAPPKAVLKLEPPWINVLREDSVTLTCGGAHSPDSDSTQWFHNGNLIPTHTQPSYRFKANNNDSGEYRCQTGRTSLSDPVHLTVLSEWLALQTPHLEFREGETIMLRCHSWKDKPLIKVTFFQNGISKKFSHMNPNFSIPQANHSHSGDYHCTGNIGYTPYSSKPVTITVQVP

T3: cynomolgus monkey FcγRIIa3 extracellular domain with C-terminal His-tag (cynomolgus monkey)
T3 construct: also called cyno FcgRIIa3; cynoFcγRIIa3
T3 chain: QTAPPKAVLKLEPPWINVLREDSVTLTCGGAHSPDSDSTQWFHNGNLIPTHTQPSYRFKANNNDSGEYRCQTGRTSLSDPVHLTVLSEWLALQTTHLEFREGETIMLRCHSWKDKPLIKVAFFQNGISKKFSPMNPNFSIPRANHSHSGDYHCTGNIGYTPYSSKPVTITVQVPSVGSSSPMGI

T4: cynomolgus monkey FcγRIIa1 extracellular domain with C-terminal His-tag (cynomolgus monkey)
T4 construct: also called cyno FcgRIIa1; cynoFcγRIIa1
T4 chain: T3 chain with T95P, A121T, S128A, P133H, N135D

T5: human FcγRIIaR extracellular domain with C-terminal His-tag (human, UniProt P12318 34-217)
T5 construct: also called human FcgRIIaR; FcγRIIa (type R)
T5 chain: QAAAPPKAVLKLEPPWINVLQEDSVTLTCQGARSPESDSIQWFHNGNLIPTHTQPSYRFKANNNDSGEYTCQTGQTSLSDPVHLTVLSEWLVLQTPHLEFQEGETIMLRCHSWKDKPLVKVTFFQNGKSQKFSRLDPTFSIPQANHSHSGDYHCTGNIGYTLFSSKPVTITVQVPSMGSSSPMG

T6: cynomolgus monkey FcγRIIa2 extracellular domain with C-terminal His-tag (cynomolgus monkey)
T6 construct: also called cyno FcgRIIa2; cynoFcγRIIa2
T6 chain: T3 chain with I127K, K130N, P133H, R142Q

T7: human FcγRIIaH extracellular domain with C-terminal His-tag (human, UniProt P12318 34-217)
T7 construct: also called human FcgRIIaH; FcγRIIa (type H)
T7 sequence: T5 chain with R134H

B1: M103205H795-MY520/M103202L889-SK1 (antibody, human IgG1, kappa)
heavy: QVTLKESGPVLVKPTETLTLTCTVSGIDLSHDDISWVRQAPGKGLEWVGIISYAGSTYYASWAKGRLTISKDTSKNQVVLTMTNMDPVDTATYYCARGVPAYSHGGDLWGQGTLVTVSSASTKGPSVFPLAPSSKSTSGGTAALGCLVKDYFPEPVTVSWNSGALTSGVHTFPAVLQSSGLYSLSSVVTVPSSSLGTQTYICNVNHKPSNTKVDKKVEPKSCDKTHTCPPCPADELLTGPVVFLFPPKPKDTLMISRTPEVTCVVVDVSDEDPEVKFNWYVDGVEVHNAKTKPREELYNSTYRVVSVLTVLHQDWLNGKEYKCKVSNKALPKPIEKTISKAKGQPREPQVYTLPPSREEMTKNQVSLTCLVKGFYPSDIAVEWESNGQPENNYKTTPPVLDSDGSFFLYSKLTVDKSRWQQGNVFSCSVMHEALHNHYTQKSLSLSP
light: DIVMTQSPATLSLSPGERATLSCTSSQSVYHANWLSWFQQKPGQPPKLLIYWASTLAYGVPSRFSGSGSGTDFTLTISSLQPEDAATYYCAGGYGGGRYAFGQGTKVEIKRTVAAPSVFIFPPSDEQLKSGTASVVCLLNNFYPREAKVQWKVDNALQSGNSQESVTEQDSKDSTYSLSSTLTLSKADYEKHKVYACEVTHQGLSSPVTKSFNRGEC
notes: Substitutions introduced into M103205H795-SG1, expressed with M103202L889-SK1 as light chain; EU numbering
B2: M103205H795-MY528/M103202L889-SK1 (antibody, human IgG1, kappa)
heavy: B1 heavy with D234P, L236W, V241S, L297Q
light: B1 light
notes: as for B1
B3: M103205H795-MY527/M103202L889-SK1 (antibody, human IgG1, kappa)
heavy: B1 heavy with A233T, D234P, V241S
light: B1 light
notes: as for B1
B4: M103205H795-MY523/M103202L889-SK1 (antibody, human IgG1, kappa)
heavy: B1 heavy with A233G, D234P
light: B1 light
notes: as for B1
B5: M103205H795-MY522/M103202L889-SK1 (antibody, human IgG1, kappa)
heavy: B1 heavy with A233G, D234P, L297Q
light: B1 light
notes: as for B1
B6: M103205H795-MY526/M103202L889-SK1 (antibody, human IgG1, kappa)
heavy: B1 heavy with A233T, D234P
light: B1 light
notes: as for B1
B7: M103205H795-MY531/M103202L889-SK1 (antibody, human IgG1, kappa)
heavy: B1 heavy with D234P, L236W, V241S, L297Q, K328T
light: B1 light
notes: as for B1
B8: M103205H795-MY532/M103202L889-SK1 (antibody, human IgG1, kappa)
heavy: B1 heavy with D234P, L236W, L297Q
light: B1 light
notes: as for B1
B9: M103205H795-MY524/M103202L889-SK1 (antibody, human IgG1, kappa)
heavy: B1 heavy with A233G, D234P, V241S
light: B1 light
notes: as for B1
B10: M103205H795-MY529/M103202L889-SK1 (antibody, human IgG1, kappa)
heavy: B1 heavy with D234P, L236W, V241S
light: B1 light
notes: as for B1
B11: M103205H795-MY525/M103202L889-SK1 (antibody, human IgG1, kappa)
heavy: B1 heavy with A233T, D234P, L297Q
light: B1 light
notes: as for B1
B12: M103205H795-MY521/M103202L889-SK1 (antibody, human IgG1, kappa)
heavy: B1 heavy with V241S
light: B1 light
notes: as for B1
B13: M103205H795-MY530/M103202L889-SK1 (antibody, human IgG1, kappa)
heavy: B1 heavy with D234P, V241S, L297Q, K328T
light: B1 light
notes: as for B1

biological target: T1, human FcγRIIb extracellular domain with …; assay: SPR (BIACORE), antibody captured, FcgR analyte

| Kd [nM] | Binder |
| --- | --- |
| 1400 | B1 |
| 2200 | B2 |
| 1400 | B3 |
| 1100 | B4 |
| 1100 | B5 |
| 1200 | B6 |
| 1500 | B7 |
| 830 | B8 |
| 1000 | B9 |
| 1400 | B10 |
| 1200 | B11 |
| 1500 | B12 |
| 1600 | B13 |

Biological target: T2, cynomolgus monkey FcγRIIb extracellular …
Assay: SPR (BIACORE), antibody captured, FcgR analyte

| Kd [nM] | Binder |
| --- | --- |
| 960 | B1 |
| 410 | B2 |
| 340 | B3 |
| 430 | B4 |
| 530 | B5 |
| 450 | B6 |
| 270 | B7 |
| 230 | B8 |
| 310 | B9 |
| 390 | B10 |
| 510 | B11 |
| 800 | B12 |
| 320 | B13 |

Biological target: T3, cynomolgus monkey FcγRIIa3 …
Assay: SPR (BIACORE), antibody captured, FcgR analyte

| Kd [nM] | Binder |
| --- | --- |
| 2100 | B1 |
| 3200 | B2 |
| 3400 | B3 |
| 1100 | B4 |
| 930 | B5 |
| 1300 | B6 |
| 2200 | B7 |
| 740 | B8 |
| 2700 | B9 |
| 3200 | B10 |
| 1100 | B11 |
| 4400 | B12 |
| 2500 | B13 |

Biological target: T4, cynomolgus monkey FcγRIIa1 …
Assay: SPR (BIACORE), antibody captured, FcgR analyte

| Kd [nM] | Binder |
| --- | --- |
| 2500 | B1 |
| 1400 | B2 |
| 1100 | B3 |
| 1400 | B4 |
| 1700 | B5 |
| 13000 | B6 |
| 1100 | B7 |
| 770 | B8 |
| 1000 | B9 |
| 1000 | B10 |
| 1600 | B11 |
| 2500 | B12 |
| 13 | B13 |

biological target: T8, human FcγRIIIaV extracellular domain with C-terminal His-tag (human, UniProt P08637 17-208); assay: SPR (BIACORE), antibody captured, FcgR analyte
T8 construct: also called human FcgRIIIaV
T8 sequence (P08637 17-208 F176V): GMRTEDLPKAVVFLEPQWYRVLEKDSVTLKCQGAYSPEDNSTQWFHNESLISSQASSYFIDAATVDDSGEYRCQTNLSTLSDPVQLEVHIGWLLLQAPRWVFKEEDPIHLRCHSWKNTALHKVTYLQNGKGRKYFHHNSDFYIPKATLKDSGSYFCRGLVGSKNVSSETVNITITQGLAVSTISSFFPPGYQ

| Kd [nM] | Binder |
| --- | --- |
| 3500 | B1 |
| 4200 | B2 |
| 4300 | B3 |
| 5500 | B4 |
| 5700 | B5 |
| 4300 | B6 |
| 2900 | B7 |
| 1700 | B8 |
| 4500 | B9 |
| 4000 | B10 |
| 4300 | B11 |
| 5200 | B12 |
| 3600 | B13 |

Biological target: T5, human FcγRIIaR extracellular domain …
Assay: SPR (BIACORE), antibody captured, FcgR analyte

| Kd [nM] | Binder |
| --- | --- |
| 340 | B1 |
| 360 | B2 |
| 290 | B3 |
| 210 | B4 |
| 170 | B5 |
| 210 | B6 |
| 410 | B7 |
| 190 | B8 |
| 280 | B9 |
| 530 | B10 |
| 160 | B11 |
| 300 | B12 |
| 270 | B13 |

Biological target: T6, cynomolgus monkey FcγRIIa2 …
Assay: SPR (BIACORE), antibody captured, FcgR analyte

| Kd [nM] | Binder |
| --- | --- |
| 2300 | B1 |
| 1500 | B2 |
| 1300 | B3 |
| 1300 | B4 |
| 1200 | B5 |
| 1200 | B6 |
| 920 | B7 |
| 600 | B8 |
| 11000 | B9 |
| 1400 | B10 |
| 1100 | B11 |
| 33000 | B12 |
| 1100 | B13 |

biological target: T7, human FcγRIIaH extracellular domain …; assay: SPR (BIACORE), antibody captured, FcgR analyte

| Kd [nM] | Binder |
| --- | --- |
| 490 | B1 |
| 390 | B2 |
| 110 | B3 |
| 190 | B4 |
| 240 | B5 |
| 170 | B6 |
| 290 | B7 |
| 210 | B8 |
| 110 | B9 |
| 230 | B10 |
| 210 | B11 |
| 390 | B12 |
| 170 | B13 |
